Test results taken from the supplement of paper PMC9112550, “Optimization of the antimicrobial peptide Bac7 by deep mutational scanning” (BMC Biology, 2022).

test system: Escherichia coli TOP10; assay: shrunken log2 fold change of peptide-encoding DNA abundance (4.5 h post-induction vs induction); higher = less antimicrobial activity (less host growth inhibition); settings: time post-induction: 4.5 h; library: site-saturation at positions 5, 18, 19, 20
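Also: peptides expressed intracellularly from a pBAD plasmid library in pooled LB shake-flask culture, induced with 0.3% L-arabinose, DNA abundance read by NGS, three biological replicates, DESeq2 with apeglm shrinkage.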

Sequence | shrunken log2 fold change
RRIRQRPPRLPRPRPRPFGWPRP | -0.0154
RRIRCRPPRLPRPRPRPTWDPRP | 0.151
RRIRPRPPRLPRPRPRPQKVPRP | 0.0449
RRIRHRPPRLPRPRPRPKYCPRP | -0.000924
RRIRPRPPRLPRPRPRPFYQPRP | -0.142
RRIRVRPPRLPRPRPRPVKFPRP | -0.133
RRIRERPPRLPRPRPRPIIEPRP | 0.0238
RRIRIRPPRLPRPRPRPEVVPRP | 0.00224
RRIRNRPPRLPRPRPRPPYTPRP | -0.876
RRIRDRPPRLPRPRPRPSLCPRP | -0.0148
RRIRCRPPRLPRPRPRPFTDPRP | -0.182
RRIRERPPRLPRPRPRPRHYPRP | -0.462
RRIRDRPPRLPRPRPRPRRQPRP | 0.161
RRIRARPPRLPRPRPRPNHCPRP | 0.956
RRIRKRPPRLPRPRPRPMSFPRP | 0.106
RRIRARPPRLPRPRPRPSEVPRP | 0.258
RRIRLRPPRLPRPRPRPQTVPRP | -0.211
RRIRGRPPRLPRPRPRPFKDPRP | -0.681
RRIRCRPPRLPRPRPRPNVRPRP | -0.000423
RRIRQRPPRLPRPRPRPVQVPRP | -0.0564
RRIRRRPPRLPRPRPRPWYYPRP | -0.293
RRIRERPPRLPRPRPRPDVSPRP | 0.0276
RRIRMRPPRLPRPRPRPYFRPRP | -0.575
RRIRLRPPRLPRPRPRPLKDPRP | -0.0949
RRIRWRPPRLPRPRPRPTHYPRP | 0.0892

Sequence | shrunken log2 fold change
RRIRWRPPRLPRPRPRPHKTPRP | 0.175
RRIRWRPPRLPRPRPRPPYKPRP | -0.249
RRIRRRPPRLPRPRPRPFWAPRP | 0.0811
RRIRTRPPRLPRPRPRPYVDPRP | 0.0214
RRIRERPPRLPRPRPRPRFKPRP | 0.00602
RRIRHRPPRLPRPRPRPGCPPRP | -0.0112
RRIRHRPPRLPRPRPRPNNNPRP | -1.09
RRIRMRPPRLPRPRPRPERPPRP | 0.338
RRIRERPPRLPRPRPRPWVHPRP | -0.0432
RRIRSRPPRLPRPRPRPNIIPRP | -0.774
RRIRWRPPRLPRPRPRPEACPRP | 1.5
RRIRLRPPRLPRPRPRPKFFPRP | 0.002
RRIRARPPRLPRPRPRPPMKPRP | 0.303
RRIRVRPPRLPRPRPRPQLSPRP | 0.132
RRIRNRPPRLPRPRPRPGGVPRP | 0.239
RRIRIRPPRLPRPRPRPKLMPRP | -0.171
RRIRQRPPRLPRPRPRPIGPPRP | 0.229
RRIRVRPPRLPRPRPRPLACPRP | 0.214
RRIRIRPPRLPRPRPRPPFYPRP | -0.438
RRIRHRPPRLPRPRPRPDSQPRP | -0.194
RRIRQRPPRLPRPRPRPIEKPRP | 0.0125
RRIRFRPPRLPRPRPRPFKDPRP | -0.112
RRIRTRPPRLPRPRPRPTMLPRP | 3.82
RRIRCRPPRLPRPRPRPKDWPRP | 0.378
RRIRWRPPRLPRPRPRPPAWPRP | 0.794

Sequence | shrunken log2 fold change
RRIRPRPPRLPRPRPRPRFDPRP | 0.197
RRIRLRPPRLPRPRPRPYEVPRP | -0.0159
RRIRCRPPRLPRPRPRPIDCPRP | -0.128
RRIRIRPPRLPRPRPRPCEMPRP | 0.0583
RRIRCRPPRLPRPRPRPNPQPRP | -0.359
RRIRRRPPRLPRPRPRPCCCPRP | 0.0202
RRIRKRPPRLPRPRPRPDNSPRP | -0.00848
RRIRWRPPRLPRPRPRPWWWPRP | 0.12
RRIRVRPPRLPRPRPRPIAAPRP | 0.454
RRIRHRPPRLPRPRPRPMGYPRP | -0.134
RRIRQRPPRLPRPRPRPYTQPRP | -0.25
RRIRCRPPRLPRPRPRPARGPRP | 0.297
RRIRWRPPRLPRPRPRPKMVPRP | 0.295
RRIRNRPPRLPRPRPRPQQQPRP | 0.103
RRIRTRPPRLPRPRPRPQLCPRP | -0.0792
RRIRMRPPRLPRPRPRPGSNPRP | 0.211
RRIRYRPPRLPRPRPRPPGHPRP | -0.337
RRIRARPPRLPRPRPRPWVDPRP | -0.0331
RRIRNRPPRLPRPRPRPGPEPRP | 0.684
RRIRRRPPRLPRPRPRPLFYPRP | -0.248
RRIRWRPPRLPRPRPRPQSPPRP | 0.0211
RRIRCRPPRLPRPRPRPKLYPRP | -0.38
RRIRSRPPRLPRPRPRPFHLPRP | -0.321
RRIRCRPPRLPRPRPRPRWLPRP | 0.313
RRIRQRPPRLPRPRPRPETNPRP | 0.0137

Sequence | shrunken log2 fold change
RRIRERPPRLPRPRPRPDHIPRP | -0.537
RRIRVRPPRLPRPRPRPTGLPRP | 0.000711
RRIRERPPRLPRPRPRPSNSPRP | -0.0251
RRIRVRPPRLPRPRPRPYDRPRP | -0.00895
RRIRHRPPRLPRPRPRPSAIPRP | -0.00669
RRIRVRPPRLPRPRPRPYNYPRP | -0.845
RRIRDRPPRLPRPRPRPLEPPRP | 0.239
RRIRHRPPRLPRPRPRPPTMPRP | -0.354
RRIRNRPPRLPRPRPRPPPAPRP | 1.09
RRIRPRPPRLPRPRPRPTVHPRP | -0.0233
RRIRFRPPRLPRPRPRPLNCPRP | -0.125
RRIRIRPPRLPRPRPRPNDVPRP | -0.0102
RRIRPRPPRLPRPRPRPDFNPRP | 1.09
RRIRKRPPRLPRPRPRPAKAPRP | 0.106
RRIRNRPPRLPRPRPRPYKGPRP | -1.13
RRIRTRPPRLPRPRPRPARSPRP | 0.0134
RRIRIRPPRLPRPRPRPVPWPRP | 2.5
RRIRCRPPRLPRPRPRPAVWPRP | 0.617
RRIRSRPPRLPRPRPRPYIIPRP | -0.502
RRIRVRPPRLPRPRPRPWGQPRP | -0.191
RRIRYRPPRLPRPRPRPQPGPRP | -0.0846
RRIRSRPPRLPRPRPRPVRVPRP | 0.743
RRIRIRPPRLPRPRPRPQHPPRP | -0.176
RRIRIRPPRLPRPRPRPRIAPRP | -0.0281
RRIRERPPRLPRPRPRPNLPPRP | -0.0648

Sequence | shrunken log2 fold change
RRIRMRPPRLPRPRPRPSHCPRP | 0.0171
RRIRARPPRLPRPRPRPYMRPRP | -0.0199
RRIRCRPPRLPRPRPRPWWTPRP | -0.383
RRIRMRPPRLPRPRPRPHALPRP | -0.541
RRIRYRPPRLPRPRPRPGLIPRP | -0.0546
RRIRNRPPRLPRPRPRPKAQPRP | 0.0241
RRIRVRPPRLPRPRPRPWQYPRP | -0.0599
RRIRLRPPRLPRPRPRPCMQPRP | -0.154
RRIRRRPPRLPRPRPRPMVYPRP | 0.119
RRIRKRPPRLPRPRPRPWTRPRP | -0.0844
RRIRKRPPRLPRPRPRPTIKPRP | 0.104
RRIRERPPRLPRPRPRPSAHPRP | 0.131
RRIRLRPPRLPRPRPRPMVRPRP | 0.0341
RRIRERPPRLPRPRPRPHLPPRP | -0.136
RRIRCRPPRLPRPRPRPMFIPRP | -1.16
RRIRARPPRLPRPRPRPISVPRP | -0.173
RRIRPRPPRLPRPRPRPMERPRP | -0.0425
RRIRTRPPRLPRPRPRPPNMPRP | -0.203
RRIRRRPPRLPRPRPRPWSWPRP | -0.0122
RRIRPRPPRLPRPRPRPQVGPRP | 0.0207
RRIRVRPPRLPRPRPRPGDRPRP | 0.365
RRIRGRPPRLPRPRPRPAWLPRP | 0.694
RRIRCRPPRLPRPRPRPSKLPRP | -0.674
RRIRVRPPRLPRPRPRPPEFPRP | 0.265
RRIRYRPPRLPRPRPRPDKSPRP | -1.15

Sequence | shrunken log2 fold change
RRIRCRPPRLPRPRPRPRSPPRP | 0.636
RRIRMRPPRLPRPRPRPKFLPRP | 0.192
RRIRVRPPRLPRPRPRPDTAPRP | -0.164
RRIRMRPPRLPRPRPRPMEWPRP | 0.379
RRIRYRPPRLPRPRPRPKAIPRP | -0.497
RRIRGRPPRLPRPRPRPTYGPRP | 0.372
RRIRRRPPRLPRPRPRPGCMPRP | 0.835
RRIRMRPPRLPRPRPRPTDVPRP | 0.141
RRIRMRPPRLPRPRPRPCCFPRP | 0.116
RRIRTRPPRLPRPRPRPRKEPRP | 0.102
RRIRDRPPRLPRPRPRPEPAPRP | 0.883
RRIRQRPPRLPRPRPRPMLLPRP | -0.337
RRIRYRPPRLPRPRPRPEKHPRP | -0.322
RRIRDRPPRLPRPRPRPQFYPRP | -0.129
RRIRWRPPRLPRPRPRPHNFPRP | -0.0122
RRIRYRPPRLPRPRPRPVPCPRP | -0.226
RRIRVRPPRLPRPRPRPLFEPRP | 0.109
RRIRQRPPRLPRPRPRPGSPPRP | -0.232
RRIRCRPPRLPRPRPRPVAWPRP | 0.163
RRIRTRPPRLPRPRPRPSWGPRP | -0.179
RRIRNRPPRLPRPRPRPISQPRP | -0.261
RRIRIRPPRLPRPRPRPPIIPRP | -0.0124
RRIRDRPPRLPRPRPRPGDAPRP | 0.207
RRIRERPPRLPRPRPRPQWIPRP | -0.0767
RRIRHRPPRLPRPRPRPDDAPRP | 0.0602
